Measurements taken from US8597902B2, “Peptide protection against ultraviolet light toxicity” (Helix Biomedix, Inc., priority 2009, dated 2013).
Ends that are not written are not given here.

How the values were obtained:
[1] = molecular target: T1, Activated human Chk2 enzyme (Homo sapiens, UniProt O96017); assay: K-LISA Checkpoint Activity Kit: Chk2 phosphorylation of biotinylated cdc25c surrogate substrate peptide; type: biochemical; conditions: peptide 50 μg/mL final concentration; for inhibition of the activity of Chk2 against the substrate peptide (in words): carboxy-terminal amidated peptides, absorbance 450/540 nm
T1 construct: purchased Sigma (St. Louis, MO)
T1 sequence (O96017 whole entry): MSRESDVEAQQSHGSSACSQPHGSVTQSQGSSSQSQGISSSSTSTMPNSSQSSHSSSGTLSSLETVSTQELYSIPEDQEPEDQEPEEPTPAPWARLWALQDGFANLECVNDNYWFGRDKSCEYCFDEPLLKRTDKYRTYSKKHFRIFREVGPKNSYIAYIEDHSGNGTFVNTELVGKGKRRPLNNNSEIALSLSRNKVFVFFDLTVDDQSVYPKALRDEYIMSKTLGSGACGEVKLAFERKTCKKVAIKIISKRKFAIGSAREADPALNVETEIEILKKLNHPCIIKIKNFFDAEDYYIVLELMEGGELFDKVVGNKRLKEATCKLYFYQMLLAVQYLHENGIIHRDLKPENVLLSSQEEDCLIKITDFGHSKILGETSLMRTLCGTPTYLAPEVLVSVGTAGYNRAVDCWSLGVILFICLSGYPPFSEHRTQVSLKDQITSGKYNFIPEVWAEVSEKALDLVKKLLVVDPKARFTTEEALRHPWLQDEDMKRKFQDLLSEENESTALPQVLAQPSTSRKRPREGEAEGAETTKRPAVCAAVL
Protocol: Activated human Chk2enzyme for these tests was obtained from Sigma (St. Louis, MO).
This incubation allowed for substrate phosphorylation by Chk2 and substrate capture in a single step. Following incubation, the phosphorylated substrate was detected using an anti-phosphoserine primary antibody, a horseradish peroxidase (HRP)-conjugated secondary antibody and TMB (tetramethylbenzidine) substrate for color development (the primary and secondary antibodies, and TMB, were provided in the K-LISA™ Checkpoint Activity Kit). Assay sensitivity was increased by the addition of the Stop solution provided in the kit. Relative Chk2 activity was determined by reading the absorbance of each well at dual wavelengths 450/540 nm.

[2] = molecular target: Activated human checkpoint kinase 2 (Chk2) (human)

Row | Molecule | inhibition of the activity of Chk2 against the substrate peptide (in words) [1] | reduction of Chk2 phosphorylation activity ([1]; versus control Chk2 activity) | Reduction of Chk2 phosphorylation activity (K-LISA, absorbance 450/540 nm) [2] [%]
1 | FHSIYQSH (FHSIYQSH-NH2; listed as Homo sapiens) [SEQ ID NO:6] | inhibited |  | 
2 | HSLYQSH (HSLYQSH-NH2; listed as Homo sapiens) [SEQ ID NO:8] | inhibited |  | 
3 | SLYQS (not fully specified (C-terminus); listed as Homo sapiens) [SEQ ID NO:10] | inhibited | about 48% | 
4 | YHSIYQSHI (YHSIYQSHI-NH2; listed as Homo Sapiens) [SEQ ID NO:3] | inhibited |  | 
5 | YHSLYESK (YHSLYESK-NH2; listed as Homo sapiens) [SEQ ID NO:5] | inhibited |  | 
6 | YHSLYQSHL (YHSLYQSHL-NH2; listed as Homo sapiens) [SEQ ID NO:2] | inhibited |  | 
7 | SLYQS-NH2 [SEQ ID NO:10 peptide (SLYQS; Ser-Leu-Tyr-Gln-Ser), carboxy-terminal amidated] |  |  | 48
